Test results: US20170218073A1 (HENLIX BIOTECH, published 2017)

Experiments:
[1] = target: T1, epidermal growth factor receptor (EGFR) (UniProt P00533 25-645, limits assumed); experiment: SPR; against HLX05
[2] = target: T1, epidermal growth factor receptor (EGFR); experiment: kinetics, method not named for Table 6 (presumably SPR)
EGFR-AP fusion protein = target: T2, EGFR-AP fusion protein (UniProt P00533 25-645); experiment: competitive ELISA: antibody pre-mixed with biotinylated HLX05, EGFR-AP added, capture on avidin wells, pNPP, A405; competitor: biotinylated HLX05
T2 construct: treated as one molecule; also called Alkaline phosphatase-conjugated EGFR; not shown: alkaline phosphatase (AP) part
Method: Alkaline phosphatase-conjugated EGFR was then added to the pre-mixed solution and pre-incubated for 1 hour at room temperature. The preincubation mix was then added to mictotiter wells coated with avidin. Following a one-hour incubation, all wells were washed with PBST, and pNPP was added to each well. Following a second incubation at 37° C., the reaction was stopped.

[3] = target: T1, epidermal growth factor receptor (EGFR); experiment: kinetics, method not named for Table 6 (presumably SPR); against HLX05
[4] = target: T1, epidermal growth factor receptor (EGFR); experiment: SPR
[5] = target: T3, EGFR antigen produced in-house (UniProt P00533 25-645, limits assumed); experiment: off-rate ELISA in wells coated with EGFR antigen produced in-house, A405
T3 construct: May be the same preparation as m1
From the text: The 1-26 heavy chain was selected and used as the basis for generating CDR-H2 libraries for deletion of a glycosylation site. CDR-H2 nucleic acid libraries were generated via PCR, cloned into a phage display vector, and transformed into E. coli to produce a library of phages.

[6] = target: T1, epidermal growth factor receptor (EGFR); experiment: kinetics of Table 6 (method not named, presumably SPR); lower end tied to 1-26/3-67 by Table 6 (2.2)

- Fold difference in KD [1]: 1.2 fold
- Kd [2]: 111 pM
- koff [2]: 0.000995 s⁻¹
- kon [2]: 8.93e+06 M⁻¹ s⁻¹
- IC50 (read off the curve) (EGFR-AP fusion protein): ~4 µg/mL
- Fold difference in KD [3]: 2.2 fold
- Kd [4]: 109 pM
- koff [4]: 0.000553 s⁻¹
- kon [4]: 5.09e+06 M⁻¹ s⁻¹
- EC50 (read off the curve) [5]: ~0.3 µg/mL
- fold higher affinity than HLX05 [6]: 2 to 3 fold
B1: 1-26/3-67 (LC/HC) (antibody, V domains shown)
VH: EVQLVESGGGLVQPGGSLRLSCAASGFSLTNYGVHWVRQAPGKGLEWLGVIWSGGNTDYGNEFTSRFTISRDNAKNSLYLQMNSLRAEDTAVYYCARALDYYDYEFAYWGQGTMVTVSS
VL: EIVLTQSPATLSLSPGERATLSCRASQSIGTNIHWYQQKPGQAPRLLIKYASESISGIPARFSGSGSGTDFTLTISSLEPEDFAVYYCQQNNNWPTSFGGGTKVEIK
notes: also called HLX07; HLX07 1-26/3-67
